Source: the supplement of paper PMC9112550, “Optimization of the antimicrobial peptide Bac7 by deep mutational scanning” (BMC Biology, 2022)

Tested on: Escherichia coli TOP10
Assay: shrunken log2 fold change of peptide-encoding DNA abundance (4.5 h post-induction vs induction); higher = less antimicrobial activity (less host growth inhibition)
Conditions: time post-induction: 4.5 h; library: site-saturation at positions 5, 18, 19, 20
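Further: peptides expressed intracellularly from a pBAD plasmid library in pooled LB shake-flask culture, induced with 0.3% L-arabinose, DNA abundance read by NGS, three biological replicates, DESeq2 with apeglm shrinkage.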

Sequence	shrunken log2 fold change
RRIRRRPPRLPRPRPRPGCHPRP	0.119
RRIRRRPPRLPRPRPRPGCMPRP	0.835
RRIRRRPPRLPRPRPRPGCSPRP	0.344
RRIRRRPPRLPRPRPRPGDIPRP	0.0886
RRIRRRPPRLPRPRPRPGDRPRP	0.265
RRIRRRPPRLPRPRPRPGDSPRP	0.269
RRIRRRPPRLPRPRPRPGEDPRP	0.00579
RRIRRRPPRLPRPRPRPGELPRP	0.12
RRIRRRPPRLPRPRPRPGEYPRP	0.264
RRIRRRPPRLPRPRPRPGFDPRP	0.289
RRIRRRPPRLPRPRPRPGFQPRP	0.301
RRIRRRPPRLPRPRPRPGFRPRP	0.331
RRIRRRPPRLPRPRPRPGHCPRP	0.0653
RRIRRRPPRLPRPRPRPGHLPRP	0.067
RRIRRRPPRLPRPRPRPGHPPRP	0.237
RRIRRRPPRLPRPRPRPGHSPRP	-0.0814
RRIRRRPPRLPRPRPRPGHTPRP	0.274
RRIRRRPPRLPRPRPRPGHYPRP	-0.0611
RRIRRRPPRLPRPRPRPGIHPRP	0.252
RRIRRRPPRLPRPRPRPGLEPRP	0.472
RRIRRRPPRLPRPRPRPGMAPRP	0.339
RRIRRRPPRLPRPRPRPGNEPRP	-0.301
RRIRRRPPRLPRPRPRPGNLPRP	0.0367
RRIRRRPPRLPRPRPRPGPNPRP	0.251
RRIRRRPPRLPRPRPRPGRCPRP	0.27

Sequence	shrunken log2 fold change
RRIRRRPPRLPRPRPRPGSCPRP	0.152
RRIRRRPPRLPRPRPRPGSLPRP	-0.00238
RRIRRRPPRLPRPRPRPGSWPRP	0.189
RRIRRRPPRLPRPRPRPGTVPRP	0.0962
RRIRRRPPRLPRPRPRPGVAPRP	0.858
RRIRRRPPRLPRPRPRPGVCPRP	0.369
RRIRRRPPRLPRPRPRPGVFPRP	0.278
RRIRRRPPRLPRPRPRPGWGPRP	0.497
RRIRRRPPRLPRPRPRPGYCPRP	-0.0631
RRIRRRPPRLPRPRPRPGYIPRP	-0.177
RRIRRRPPRLPRPRPRPGYPPRP	0.00327
RRIRRRPPRLPRPRPRPHAGPRP	0.425
RRIRRRPPRLPRPRPRPHDAPRP	0.197
RRIRRRPPRLPRPRPRPHELPRP	0.429
RRIRRRPPRLPRPRPRPHETPRP	1.07
RRIRRRPPRLPRPRPRPHFRPRP	-0.0205
RRIRRRPPRLPRPRPRPHFSPRP	-0.187
RRIRRRPPRLPRPRPRPHFYPRP	0.0714
RRIRRRPPRLPRPRPRPHGYPRP	0.0169
RRIRRRPPRLPRPRPRPHHRPRP	0.0911
RRIRRRPPRLPRPRPRPHIVPRP	-0.0515
RRIRRRPPRLPRPRPRPHKKPRP	0.228
RRIRRRPPRLPRPRPRPHKMPRP	-0.167
RRIRRRPPRLPRPRPRPHMYPRP	-0.272
RRIRRRPPRLPRPRPRPHNLPRP	-0.176

Sequence	shrunken log2 fold change
RRIRRRPPRLPRPRPRPHPDPRP	0.474
RRIRRRPPRLPRPRPRPHPNPRP	0.246
RRIRRRPPRLPRPRPRPHQHPRP	0.0389
RRIRRRPPRLPRPRPRPHRCPRP	0.0585
RRIRRRPPRLPRPRPRPHRYPRP	-0.0438
RRIRRRPPRLPRPRPRPHSWPRP	0.333
RRIRRRPPRLPRPRPRPHTVPRP	0.0423
RRIRRRPPRLPRPRPRPHYPPRP	0.158
RRIRRRPPRLPRPRPRPIAPPRP	0.702
RRIRRRPPRLPRPRPRPIAWPRP	0.0624
RRIRRRPPRLPRPRPRPICGPRP	-0.0231
RRIRRRPPRLPRPRPRPIDTPRP	-0.307
RRIRRRPPRLPRPRPRPIDVPRP	-0.00284
RRIRRRPPRLPRPRPRPIDWPRP	0.122
RRIRRRPPRLPRPRPRPIEMPRP	0.0754
RRIRRRPPRLPRPRPRPIFPPRP	0.69
RRIRRRPPRLPRPRPRPIFSPRP	1.06
RRIRRRPPRLPRPRPRPIGIPRP	-0.088
RRIRRRPPRLPRPRPRPIHEPRP	0.086
RRIRRRPPRLPRPRPRPIHKPRP	0.27
RRIRRRPPRLPRPRPRPIIVPRP	0.0931
RRIRRRPPRLPRPRPRPIKCPRP	-0.17
RRIRRRPPRLPRPRPRPIKMPRP	-0.0923
RRIRRRPPRLPRPRPRPILEPRP	0.0696
RRIRRRPPRLPRPRPRPIMIPRP	-0.105

Sequence	shrunken log2 fold change
RRIRRRPPRLPRPRPRPIMVPRP	-0.371
RRIRRRPPRLPRPRPRPIPEPRP	0.12
RRIRRRPPRLPRPRPRPIPLPRP	0.194
RRIRRRPPRLPRPRPRPIQIPRP	-0.00118
RRIRRRPPRLPRPRPRPIREPRP	0.208
RRIRRRPPRLPRPRPRPIYFPRP	0.124
RRIRRRPPRLPRPRPRPIYMPRP	-0.138
RRIRRRPPRLPRPRPRPIYSPRP	-0.159
RRIRRRPPRLPRPRPRPKAQPRP	-0.00801
RRIRRRPPRLPRPRPRPKGHPRP	0.127
RRIRRRPPRLPRPRPRPKGLPRP	0.238
RRIRRRPPRLPRPRPRPKGRPRP	0.135
RRIRRRPPRLPRPRPRPKHLPRP	0.0709
RRIRRRPPRLPRPRPRPKHNPRP	0.396
RRIRRRPPRLPRPRPRPKKCPRP	-0.325
RRIRRRPPRLPRPRPRPKKHPRP	0.197
RRIRRRPPRLPRPRPRPKLDPRP	0.523
RRIRRRPPRLPRPRPRPKMSPRP	0.274
RRIRRRPPRLPRPRPRPKPDPRP	0.493
RRIRRRPPRLPRPRPRPKQAPRP	0.908
RRIRRRPPRLPRPRPRPKQCPRP	0.0754
RRIRRRPPRLPRPRPRPKRKPRP	0.099
RRIRRRPPRLPRPRPRPKRQPRP	0.584
RRIRRRPPRLPRPRPRPKTAPRP	0.707
RRIRRRPPRLPRPRPRPKTIPRP	0.0447

Sequence	shrunken log2 fold change
RRIRRRPPRLPRPRPRPKVGPRP	-0.119
RRIRRRPPRLPRPRPRPKVRPRP	0.111
RRIRRRPPRLPRPRPRPKWDPRP	0.139
RRIRRRPPRLPRPRPRPKYDPRP	-0.466
RRIRRRPPRLPRPRPRPKYKPRP	-0.148
RRIRRRPPRLPRPRPRPLAGPRP	0.477
RRIRRRPPRLPRPRPRPLCEPRP	0.443
RRIRRRPPRLPRPRPRPLDSPRP	-0.106
RRIRRRPPRLPRPRPRPLESPRP	0.0173
RRIRRRPPRLPRPRPRPLFAPRP	0.755
RRIRRRPPRLPRPRPRPLFHPRP	0.0745
RRIRRRPPRLPRPRPRPLFQPRP	0.246
RRIRRRPPRLPRPRPRPLFYPRP	-0.248
RRIRRRPPRLPRPRPRPLINPRP	-0.0185
RRIRRRPPRLPRPRPRPLISPRP	-0.111
RRIRRRPPRLPRPRPRPLITPRP	-0.0767
RRIRRRPPRLPRPRPRPLKYPRP	0.0102
RRIRRRPPRLPRPRPRPLLDPRP	0.449
RRIRRRPPRLPRPRPRPLMEPRP	-0.0263
RRIRRRPPRLPRPRPRPLNFPRP	-0.115
RRIRRRPPRLPRPRPRPLNTPRP	-0.244
RRIRRRPPRLPRPRPRPLNWPRP	0.296
RRIRRRPPRLPRPRPRPLPGPRP	0.59
RRIRRRPPRLPRPRPRPLPWPRP	0.057
RRIRRRPPRLPRPRPRPLQCPRP	0.18

Sequence	shrunken log2 fold change
RRIRRRPPRLPRPRPRPLQNPRP	0.045
RRIRRRPPRLPRPRPRPLRQPRP	1.04
RRIRRRPPRLPRPRPRPLSTPRP	0.021
RRIRRRPPRLPRPRPRPLSYPRP	-0.0226
RRIRRRPPRLPRPRPRPLTAPRP	0.337
RRIRRRPPRLPRPRPRPLTEPRP	0.793
RRIRRRPPRLPRPRPRPLTVPRP	0.0344
RRIRRRPPRLPRPRPRPLVVPRP	0.312
RRIRRRPPRLPRPRPRPLWAPRP	0.501
RRIRRRPPRLPRPRPRPLWIPRP	-0.22
RRIRRRPPRLPRPRPRPLWKPRP	0.115
RRIRRRPPRLPRPRPRPLWMPRP	0.0635
RRIRRRPPRLPRPRPRPLYIPRP	-0.466
RRIRRRPPRLPRPRPRPMASPRP	-0.00822
RRIRRRPPRLPRPRPRPMCAPRP	0.193
RRIRRRPPRLPRPRPRPMCCPRP	-0.0111
RRIRRRPPRLPRPRPRPMCDPRP	0.308
RRIRRRPPRLPRPRPRPMDCPRP	0.00462
RRIRRRPPRLPRPRPRPMDGPRP	0.0167
RRIRRRPPRLPRPRPRPMDQPRP	0.132
RRIRRRPPRLPRPRPRPMFDPRP	0.195
RRIRRRPPRLPRPRPRPMFSPRP	-0.0418
RRIRRRPPRLPRPRPRPMGCPRP	-0.0336
RRIRRRPPRLPRPRPRPMHMPRP	0.121
RRIRRRPPRLPRPRPRPMIEPRP	0.177
